Target: T1, flag-RARα (mRARα);myc-RXRα (mRXRα) (Mus musculus;Mus musculus, UniProt P11416;P28700 1-462;1-467, |)
T1 sequence 1: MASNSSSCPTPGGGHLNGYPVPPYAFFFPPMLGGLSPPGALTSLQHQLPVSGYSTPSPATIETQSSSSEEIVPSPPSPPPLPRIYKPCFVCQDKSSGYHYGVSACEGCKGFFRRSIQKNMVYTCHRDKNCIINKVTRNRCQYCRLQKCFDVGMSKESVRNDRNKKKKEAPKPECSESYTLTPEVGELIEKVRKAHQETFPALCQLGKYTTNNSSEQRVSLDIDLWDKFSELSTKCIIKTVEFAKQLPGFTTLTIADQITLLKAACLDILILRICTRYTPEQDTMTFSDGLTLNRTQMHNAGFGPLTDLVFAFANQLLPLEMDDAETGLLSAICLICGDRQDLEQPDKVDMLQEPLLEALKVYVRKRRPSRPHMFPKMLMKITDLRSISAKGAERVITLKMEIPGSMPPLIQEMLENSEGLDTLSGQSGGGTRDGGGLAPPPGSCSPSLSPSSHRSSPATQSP
T1 sequence 2: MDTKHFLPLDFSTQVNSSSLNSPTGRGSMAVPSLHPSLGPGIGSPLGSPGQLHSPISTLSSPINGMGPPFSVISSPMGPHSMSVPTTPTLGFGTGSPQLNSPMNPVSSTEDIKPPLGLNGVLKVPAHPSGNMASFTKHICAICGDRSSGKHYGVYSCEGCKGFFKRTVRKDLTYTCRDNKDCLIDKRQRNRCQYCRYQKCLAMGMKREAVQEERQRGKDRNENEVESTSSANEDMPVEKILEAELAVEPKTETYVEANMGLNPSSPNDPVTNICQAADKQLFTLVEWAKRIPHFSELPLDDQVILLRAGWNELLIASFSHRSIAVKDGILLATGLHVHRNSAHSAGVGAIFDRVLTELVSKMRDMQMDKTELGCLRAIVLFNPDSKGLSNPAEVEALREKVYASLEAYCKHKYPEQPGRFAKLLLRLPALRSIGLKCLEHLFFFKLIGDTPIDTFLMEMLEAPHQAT
Assay: EMSA; EMSA essentially as Forman et al. 1992 and Shtutman et al. 1999; buffer, salt, pH and temperature not stated
Conditions: protein: ivt;ivt; tags: N-terminal flag;N-terminal myc; copies: 1;1; blunt (complement S6 printed; duplex implied)

B1: RARE3 mut (dsDNA)
DNA 1: CCGGCAGCTGCGATGACTGCTCCCTCCTTA
DNA 2: TAAGGAGGGAGCAGTCATCGCAGCTGCCGG
Question: Does B1 bind?
Answer: no binding

— publication PMC4553633, “RA Acts in a Coherent Feed-Forward Mechanism with Tbx5 to Control Limb Bud Induction and Initiation”
